# Source: article PMC11904782, “Armadillo domain of ARID1A directly interacts with DNA-PKcs to couple chromatin remodeling with nonhomologous end joining (NHEJ) pathway” (Nucleic Acids Research, 2025)
# B1: His–ARID1A–ARM domain (1914–2285 aa) (domain or fragment, UniProt O14497 1914-2285, looked up)
# chain: MLSTRSSTLTEDGAKSSEAIKESSKFPFGISPAQSHRNIKILEDEPHSKDETPLCTLLDWQDSLAKRCVCVSNTIRSLSFVPGNDFEMSKHPGLLLILGKLILLHHKHPERKQAPLTYEKEEEQDQGVSCNKVEWWWDCLEMLRENTLVTLANISGQLDLSPYPESICLPVLDGLLHWAVCPSAEAQDPFSTLGPNAVLSPQRLVLETLSKLSIQDNNVDLILATPPFSRLEKLYSTMVRFLSDRKNPVCREMAVVLLANLAQGDSLAARAIAVQKGSIGNLLGFLEDSLAATQFQQSQASLLHMQNPPFEPTSVDMMRRAARALLALAKVDENHSEFTLYESRLLDISVSPLMNSLVSQVICDVLFLIGQS
# notes: ARID1A residues 1914-2285 (ARM domain); Limits are printed for the BLI ligand; also called His-tagged ARM domain of ARID1A
# Assays:
# Settings in all cases: both partners purified
# [1] = target: B1; test: far-Western, overlay or dot blot; GST-fusion proteins separated by SDS–PAGE, transferred to PVDF, renatured through falling guanidine–HCl, incubated with His–ARID1A–ARM overnight at 4°C, probed with anti-His-tag antibody
# [2] = target: B1; test: BLI; Octet Red K2; His–ARID1A–ARM domain immobilised on NTA biosensors; GST recombinant proteins as analytes in serial dilutions
# [3] = target: T1, GST-DNTT: aa 1–509 (UniProt P04053 1-509); test: far-Western, overlay or dot blot; GST-fusion proteins separated by SDS–PAGE, transferred to PVDF, renatured through falling guanidine–HCl, incubated with His–ARID1A–ARM overnight at 4°C, probed with anti-His-tag antibody
# T1 construct: DNA nucleotidylexotransferase (DNTT) residues 1-509; also called DNA nucleotidylexotransferase
# T1 sequence (P04053 whole entry, the tested form may be a part): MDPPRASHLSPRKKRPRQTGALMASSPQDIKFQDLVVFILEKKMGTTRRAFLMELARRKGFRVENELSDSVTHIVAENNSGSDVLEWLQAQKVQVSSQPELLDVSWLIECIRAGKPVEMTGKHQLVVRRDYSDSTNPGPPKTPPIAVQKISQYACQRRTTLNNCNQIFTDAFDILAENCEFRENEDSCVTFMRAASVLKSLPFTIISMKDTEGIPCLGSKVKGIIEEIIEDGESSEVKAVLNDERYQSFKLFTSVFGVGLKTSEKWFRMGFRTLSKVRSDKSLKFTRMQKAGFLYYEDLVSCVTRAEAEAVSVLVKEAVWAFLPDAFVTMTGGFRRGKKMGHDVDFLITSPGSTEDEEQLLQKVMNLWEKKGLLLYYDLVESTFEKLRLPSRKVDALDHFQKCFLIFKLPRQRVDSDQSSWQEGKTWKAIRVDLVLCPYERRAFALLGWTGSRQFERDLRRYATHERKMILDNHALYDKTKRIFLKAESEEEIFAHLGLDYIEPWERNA
Binder,binding result [1],binding result [2],other results
"AALGDPKAPGLGAFRRKFIQTFGKEFDKHFGKGGSKLLRMKLSDFN (domain or fragment, UniProt P78527 3615-3660, looked up, DNA-PKcs residues 3615-3660, printed as 45 amino acids) [GST–DNA–PKcs ARID1A-binding region (3615–3660 aa), wild type]",binds,–,–
"GST-POLB (7–53 aa) (domain or fragment, DNA polymerase beta residues 7-53; Printed as GAT-POLB in the methods; also called GAT-POLB (7–53 aa); recombinant POLB) not shown",–,binds,–
"wild-type GST–DNA–PKcs (3552–3691 aa) (domain or fragment, UniProt P78527 3552-3691, looked up, DNA-PKcs residues 3552-3691; also called recombinant wild-type DNA-PKcs; longer amino acid region (3552–3691 aa)) KEFVARIKSKLDQGGVIQDFINALDQLSNPELLFKDWSNDVRAELAKTPVNKKNIEKMYERMYAALGDPKAPGLGAFRRKFIQTFGKEFDKHFGKGGSKLLRMKLSDFNDITNMLLLKMNKDSKPPGNLKECSPWMSDFK",–,binds,–
B1,–,–,binding result [3]: binds
"GST-EZH2-C: aa 598–746 (domain or fragment, enhancer of zeste 2 PRC2 subunit 2 (EZH2) residues 598-746) not shown",binds,–,–
